Assay results from paper PMC8289069, “Functional requirement of terminal inverted repeats for efficient ProtoRAG activity reveals the early evolution of V(D)J recombination”.

Target: T1, mRAG1F (mouse, UniProt P15919 389-456)
T1 sequence: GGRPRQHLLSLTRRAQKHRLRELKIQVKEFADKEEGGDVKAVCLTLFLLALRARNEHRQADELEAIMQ
Assay: DNA-binding assay (type not stated); EMSA: 25 mM MOPS pH 7.0, 50 mM KCl, 2 mM DTT, 1.5 mM CaCl2, 2.5% glycerol, 50 nM HMGB1, 100 nM ss nonspecific oligo, ~50 nM each RAG, 25 C 20 min; pull-down: 50 mM Tris pH 7.5, 150 mM NaCl, 0.5% NP40, 5% glycerol, 1.5 mM CaCl2, 4 C
Details: protein: recombinant; chain copies: 2; label: 5' biotin on strand 1; blunt

B1: 12RSS (dsDNA)
DNA 1: GATCTGGCCTGTCTTACACAGTGATACAGACCTTAACAAAAACCCTGCAG
DNA 2: CTGCAGGGTTTTTGTTAAGGTCTGTATCACTGTGTAAGACAGGCCAGATC
- binding result: binds
